Square brackets hold non-standard residues; d marks the D form. Side chains are listed from the residue outwards. Ends that are not written are not given here. * marks the point of attachment. pyrrolidinyl = lysine with its side-chain amine cyclized into a pyrrolidine ring; azepanyl = lysine epsilon-N closed into a 7-membered azepane ring; piperidinyl = lysine epsilon-N closed into a piperidine ring; Lys(Me3) = C[N+](C)(C)CCCC[C@H](N)C(=O)O; NMeF = CN[C@@H](Cc1ccccc1)C(=O)O; dicyclobutyl = not defined here; diethyl = not defined here; Cyclopentyl = C1CCC(*)C1; cyclohexyl = C1CCC(*)CC1; Bz = O=C(c1ccccc1)*; iPr = CC(C)*
T1: chromodomain of CDYL2 (human, UniProt Q8N8U2 1-75)
T1 sequence (looked up): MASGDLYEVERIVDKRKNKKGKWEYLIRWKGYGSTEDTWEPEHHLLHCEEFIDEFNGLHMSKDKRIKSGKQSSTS

T2: chromodomain of CBX7 (human, UniProt O95931 8-62)
T2 sequence (looked up): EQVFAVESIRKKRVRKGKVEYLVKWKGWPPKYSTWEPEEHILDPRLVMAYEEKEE

T3: chromodomain of CBX4 (human, UniProt O00257-1 8-65)
T3 sequence (looked up): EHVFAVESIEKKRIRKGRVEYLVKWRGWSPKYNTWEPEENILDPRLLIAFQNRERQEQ

B1: compound 1 (UNC3866) (peptide)
peptide: FALKS
modifications: N-terminal para-t-butyl benzoyl cap; diethyl-lysine in lieu of Kme3; C-terminal methyl ester
B2: compound 3 (peptide)
peptide: Bz-Ala-Leu-[Lys(Me3)]-NHMe
SMILES: CNC(=O)[C@H](CCCC[N+](C)(C)C)NC(=O)[C@H](CC(C)C)NC(=O)[C@H](C)NC(=O)c1ccccc1
B3: compound 10 (peptide)
peptide: GFALKS
modifications: N-terminal benzoyl (Bz) cap; N-methylated glycine amide (N(me)Gly); trimethyl-lysine (Kme3); C-terminal methyl ester (Ser-OMe)

Target: chromodomain of CBX5 (human)
Sequence (Q9UN86 18-75): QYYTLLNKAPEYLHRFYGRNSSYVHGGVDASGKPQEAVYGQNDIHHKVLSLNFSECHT
Test: AlphaScreen or HTRF

IC50 [nM] | Binder
> 60000 | Bz-GFALK(iPr)S-OMe [compound 12]
> 60000 | Bz-GFALK(piperidinyl)S-OMe [compound 20]
> 60000 | Bz-GFALK(norbornyl)S-OMe [compound 15]
> 60000 | Bz-GFALK(azepanyl)S-OMe [compound 21]
> 60000 | Bz-GFALK([norbornyl-Ac])S-OMe [compound 23]
> 60000 | Bz-GFALK(adamantyl)S-OMe [compound 16]
> 60000 | Bz-GFALK(Cyclopentyl)S-OMe [compound 13]
> 60000 | Bz-GFALK(dimethyl)S-OMe [compound 17]
> 60000 | Bz-GFALKS-OMe [compound 11]
> 60000 | Bz-GFALK(diethyl)S-OMe (reading uncertain) [compound 18]
> 60000 | Bz-GFALK(cyclohexyl)S-OMe [compound 14]
> 60000 | Bz-GFALK(dicyclobutyl)S-OMe (reading uncertain) [compound 22]
> 60000 | Bz-GFALK(pyrrolidinyl)S-OMe [compound 19]
> 60000 | Bz-GFALK(tetramethylguanidino)S-OMe [compound 24]

Target: T1, chromodomain of CDYL2
Test: AlphaScreen or HTRF

IC50 [nM] | Binder
100 | {4‑iPr‑Bz}-FALK(diethyl)S-OMe (reading uncertain) [compound 32]
560 | {2‑Me‑Bz}-FALK(diethyl)S-OMe (reading uncertain) [compound 28]
110 | {4‑tBu‑Bz}-FAL[Lys(Me3)]S-OMe [compound 39]
340 | {3‑Me‑Bz}-FALK(diethyl)S-OMe (reading uncertain) [compound 29]
200 | {t‑butylbenzyl}-FALK(diethyl)S-OMe (reading uncertain) [compound 36]
100 | {4‑Et‑Bz}-FALK(diethyl)S-OMe (reading uncertain) [compound 31]
140 | B1
340 | Bz-FALK(diethyl)S-OMe (reading uncertain) [compound 27]
130 | {4‑CF3‑Bz}-FALK(diethyl)S-OMe (reading uncertain) [compound 34]
110 | {4‑CO2Me‑Bz}-FALK(diethyl)S-OMe (reading uncertain) [compound 33]
280 | {4‑Me‑Bz}-FALK(diethyl)S-OMe (reading uncertain) [compound 30]

Target: T2, chromodomain of CBX7
Test: AlphaScreen or HTRF

IC50 [nM] | Binder
61 | {4‑iPr‑Bz}-FALK(diethyl)S-OMe (reading uncertain) [compound 32]
25000 | {2‑Me‑Bz}-FALK(diethyl)S-OMe (reading uncertain) [compound 28]
740 | {3‑Me‑Bz}-FALK(diethyl)S-OMe (reading uncertain) [compound 29]
4400 | {t‑butylbenzyl}-FALK(diethyl)S-OMe (reading uncertain) [compound 36]
81 | {4‑Et‑Bz}-FALK(diethyl)S-OMe (reading uncertain) [compound 31]
37 | B1
1200 | Bz-FALK(diethyl)S-OMe (reading uncertain) [compound 27]
230 | {4‑CF3‑Bz}-FALK(diethyl)S-OMe (reading uncertain) [compound 34]
570 | {4‑CO2Me‑Bz}-FALK(diethyl)S-OMe (reading uncertain) [compound 33]
220 | {4‑Me‑Bz}-FALK(diethyl)S-OMe (reading uncertain) [compound 30]

Target: T3, chromodomain of CBX4
Test: AlphaScreen or HTRF

IC50 [nM] | Binder
160 | {4‑iPr‑Bz}-FALK(diethyl)S-OMe (reading uncertain) [compound 32]
58000 | {2‑Me‑Bz}-FALK(diethyl)S-OMe (reading uncertain) [compound 28]
2700 | {3‑Me‑Bz}-FALK(diethyl)S-OMe (reading uncertain) [compound 29]
9700 | {t‑butylbenzyl}-FALK(diethyl)S-OMe (reading uncertain) [compound 36]
190 | {4‑Et‑Bz}-FALK(diethyl)S-OMe (reading uncertain) [compound 31]
83 | B1
3000 | Bz-FALK(diethyl)S-OMe (reading uncertain) [compound 27]
480 | {4‑CF3‑Bz}-FALK(diethyl)S-OMe (reading uncertain) [compound 34]
1200 | {4‑CO2Me‑Bz}-FALK(diethyl)S-OMe (reading uncertain) [compound 33]
770 | {4‑Me‑Bz}-FALK(diethyl)S-OMe (reading uncertain) [compound 30]

Target: chromodomain of CBX5 (human)
Test: AlphaScreen or HTRF
Remark: another data set of the same source

IC50 [nM] | Binder
53000 | {4‑tBu‑Bz}-F(CH2NH2)ALK(diethyl)S-OMe (reading uncertain) [compound 47]
44000 | {4‑tBu‑Bz}-F(CH2NHBoc)ALK(diethyl)S-OMe (reading uncertain) [compound 48]
> 60000 | {4‑tBu‑Bz}-FALK(diethyl)S-NMe2 (reading uncertain) [compound 45]
> 60000 | {4‑tBu‑Bz}-FALK(diethyl)S (reading uncertain; also: C-terminal carbonyl removed entirely (R3 = -H)) [compound 46]
> 60000 | {4‑tBu‑Bz}-FALK(diethyl)S-OH (reading uncertain) [compound 44]

Target: chromodomain of CBX5 (human)
Test: AlphaScreen or HTRF
Remark: another data set of the same source

IC50 [nM] | Binder
38000 | {4‑iPr‑Bz}-FALK(diethyl)S-OMe (reading uncertain) [compound 32]
> 60000 | {2‑Me‑Bz}-FALK(diethyl)S-OMe (reading uncertain) [compound 28]
> 60000 | {4‑tBu‑Bz}-FAL[Lys(Me3)]S-OMe [compound 39]
> 60000 | {3‑Me‑Bz}-FALK(diethyl)S-OMe (reading uncertain) [compound 29]
> 60000 | {t‑butylbenzyl}-FALK(diethyl)S-OMe (reading uncertain) [compound 36]
14000 | {4‑Et‑Bz}-FALK(diethyl)S-OMe (reading uncertain) [compound 31]
> 60000 | B1
6900 | Bz-FALK(diethyl)S-OMe (reading uncertain) [compound 27]
33000 | {4‑CF3‑Bz}-FALK(diethyl)S-OMe (reading uncertain) [compound 34]
26000 | {4‑CO2Me‑Bz}-FALK(diethyl)S-OMe (reading uncertain) [compound 33]
21000 | {4‑Me‑Bz}-FALK(diethyl)S-OMe (reading uncertain) [compound 30]

Target: chromodomain of CBX5 (human)
Test: AlphaScreen or HTRF
Remark: another data set of the same source

IC50 [nM] | Binder
> 60000 | Bz-GFAL[Lys(Me3)]S-OMe [compound 6]
> 60000 | Bz-G[NMeF]AL[Lys(Me3)]S-OMe [compound 9]
> 60000 | B2
> 60000 | B3
> 60000 | Bz-GFALKS-OMe (not fully specified (residues 3, 5)) [compound 8]

Target: T1, chromodomain of CDYL2
Test: AlphaScreen or HTRF
Remark: another data set of the same source

IC50 [nM] | Binder
75 | {4‑tBu‑Bz}-F(CH2NH2)ALK(diethyl)S-OMe (reading uncertain) [compound 47]
160 | {4‑tBu‑Bz}-F(CH2NHBoc)ALK(diethyl)S-OMe (reading uncertain) [compound 48]
360 | {4‑tBu‑Bz}-FALK(diethyl)S-NMe2 (reading uncertain) [compound 45]
410 | {4‑tBu‑Bz}-FALK(diethyl)S (reading uncertain; also: C-terminal carbonyl removed entirely (R3 = -H)) [compound 46]
740 | {4‑tBu‑Bz}-FALK(diethyl)S-OH (reading uncertain) [compound 44]

Target: T2, chromodomain of CBX7
Test: AlphaScreen or HTRF
Remark: another data set of the same source

IC50 [nM] | Binder
63 | {4‑tBu‑Bz}-F(CH2NH2)ALK(diethyl)S-OMe (reading uncertain) [compound 47]
56 | {4‑tBu‑Bz}-F(CH2NHBoc)ALK(diethyl)S-OMe (reading uncertain) [compound 48]
47 | {4‑tBu‑Bz}-FALK(diethyl)S-NMe2 (reading uncertain) [compound 45]
75 | {4‑tBu‑Bz}-FALK(diethyl)S (reading uncertain; also: C-terminal carbonyl removed entirely (R3 = -H)) [compound 46]
130 | {4‑tBu‑Bz}-FALK(diethyl)S-OH (reading uncertain) [compound 44]

Target: T3, chromodomain of CBX4
Test: AlphaScreen or HTRF
Remark: another data set of the same source

IC50 [nM] | Binder
170 | {4‑tBu‑Bz}-F(CH2NH2)ALK(diethyl)S-OMe (reading uncertain) [compound 47]
98 | {4‑tBu‑Bz}-F(CH2NHBoc)ALK(diethyl)S-OMe (reading uncertain) [compound 48]
140 | {4‑tBu‑Bz}-FALK(diethyl)S-NMe2 (reading uncertain) [compound 45]
200 | {4‑tBu‑Bz}-FALK(diethyl)S (reading uncertain; also: C-terminal carbonyl removed entirely (R3 = -H)) [compound 46]
240 | {4‑tBu‑Bz}-FALK(diethyl)S-OH (reading uncertain) [compound 44]

Reference: publication PMC5063714 (Journal of medicinal chemistry, 2016)
